Data taken from patent US20100041875A1.

Assays:
[1] = molecular target: wild-type JR-FL SOS gp140 (trimer) (HIV-1 isolate JR-FL (subtype B)) (UniProt P20871); experiment: SPR (BIAcore X): agent captured via Fc on protein G chip, 5 nM purified gp140 trimer injected
[2] = molecular target: JR-FL gp41 NT 1-5 SOS gp140 mutant (trimer) (HIV-1 isolate JR-FL (subtype B)) (UniProt P20871); experiment: as above
[3] = molecular target: JR-FL gp41 NT 1-5 mutant Env (full-length gp160) (HIV-1 isolate JR-FL (subtype B)) (UniProt P20871); experiment: cell-based or functional assay
[4] = molecular target: full-length WT JR-FL (gp160) Env (JR-FL WT) (HIV-1 isolate JR-FL (subtype B)) (UniProt P20871); experiment: cell-based or functional assay
[5] = molecular target: wild-type JR-FL SOS gp140 (trimer) (HIV-1 isolate JR-FL (subtype B)) (UniProt P20871); experiment: SPR, with against without D1D2-CD4
[6] = molecular target: JR-FL gp41 NT 1-5 SOS gp140 mutant (trimer) (HIV-1 isolate JR-FL (subtype B)) (UniProt P20871); experiment: SPR, with against without D1D2-CD4
[7] = molecular target: wild-type JR-FL SOS gp140 (trimer) (HIV-1 isolate JR-FL (subtype B)) (UniProt P20871); experiment: SPR (BIAcore X): 17b captured via Fc on protein G chip, 5 nM gp140 trimer pre-incubated 1 h with 6-molar excess D1D2-CD4
[8] = molecular target: JR-FL gp41 NT 1-5 SOS gp140 mutant (trimer) (HIV-1 isolate JR-FL (subtype B)) (UniProt P20871); experiment: as above
[9] = molecular target: wild-type JR-FL SOS gp140 (trimer) (HIV-1 isolate JR-FL (subtype B)) (UniProt P20871); experiment: SPR (BIAcore X): agent captured via Fc on protein G chip, 5 nM purified gp140 trimer injected, no CD4
[10] = molecular target: JR-FL gp41 NT 1-5 SOS gp140 mutant (trimer) (HIV-1 isolate JR-FL (subtype B)) (UniProt P20871); experiment: as above

In the case of “CD4-IgG2 (PRO 542) (from UniProt P01730 26-204) (Fc fusion)”, the Mean RU at end of injection (t = 180 s) [1] is reported as 212 RU, the Mean RU at end of injection (t = 180 s) [2] is reported as 224 RU and the neutralization of Env-pseudotyped virus infectivity (U87.CD4.CCR5 cells), mean IC50 [3] is reported as 0.74 µg/mL. The neutralization of Env-pseudotyped virus infectivity (U87.CD4.CCR5 cells), mean IC50 [4] was 0.82 µg/mL.

Work on MAb 2F5 (antibody) yielded a Mean RU at end of injection (t = 180 s) [1] of 191 RU, a Mean RU at end of injection (t = 180 s) [2] of 216 RU and a neutralization of Env-pseudotyped virus infectivity (U87.CD4.CCR5 cells), mean IC50 [3] of 5.9 µg/mL. For the same substance, the neutralization of Env-pseudotyped virus infectivity (U87.CD4.CCR5 cells), mean IC50 [4] was 6.2 µg/mL.

For MAb 4E10 (antibody), the Mean RU at end of injection (t = 180 s) [1] was 83 RU, the Mean RU at end of injection (t = 180 s) [2] was 94 RU and the neutralization of Env-pseudotyped virus infectivity (U87.CD4.CCR5 cells), mean IC50 [3] was 14.1 µg/mL. The neutralization of Env-pseudotyped virus infectivity (U87.CD4.CCR5 cells), mean IC50 [4] was 13.4 µg/mL.

For MAb 15e (antibody), the neutralization of Env-pseudotyped virus infectivity (U87.CD4.CCR5 cells), mean IC50 [3] was > 50 µg/mL and the neutralization of Env-pseudotyped virus infectivity (U87.CD4.CCR5 cells), mean IC50 [4] was > 50 µg/mL.

In the case of MAb 17b (antibody), the fold induction of 17b binding by D1D2-CD4 [5] is reported as 5 fold, the fold induction of 17b binding by D1D2-CD4 [6] is reported as 25 fold and the Mean RU at end of injection (t = 180 s) [7] is reported as 237 RU. For the same substance, the Mean RU at end of injection (t = 180 s) [8] was 399 RU, the neutralization in the presence of sCD4, fold against the WT virus [3] was 2 fold and the neutralization of Env-pseudotyped virus infectivity (U87.CD4.CCR5 cells), mean IC50 [3] was > 50 µg/mL. The neutralization of Env-pseudotyped virus infectivity in the presence of sCD4 (17b + sCD4), mean IC50 [3] was 15.2 µg/mL, the neutralization of Env-pseudotyped virus infectivity (U87.CD4.CCR5 cells), mean IC50 [4] was > 50 µg/mL and the neutralization of Env-pseudotyped virus infectivity in the presence of sCD4 (17b + sCD4), mean IC50 [4] was 25.9 µg/mL. For the same substance, the Mean RU at end of injection (t = 180 s) [9] was 39 RU and the Mean RU at end of injection (t = 180 s) [10] was 14 RU.

MAb A32 (antibody) was tested, and the neutralization of Env-pseudotyped virus infectivity (U87.CD4.CCR5 cells), mean IC50 [3] was > 50 µg/mL and the neutralization of Env-pseudotyped virus infectivity (U87.CD4.CCR5 cells), mean IC50 [4] was > 50 µg/mL.

Substance MAb F425-B4e8 (antibody) has a neutralization of Env-pseudotyped virus infectivity (U87.CD4.CCR5 cells), mean IC50 [3] of 2.64 µg/mL and a neutralization of Env-pseudotyped virus infectivity (U87.CD4.CCR5 cells), mean IC50 [4] of 2.94 µg/mL.

For MAb b6 (antibody), the Mean RU at end of injection (t = 180 s) [1] was 391 RU, the Mean RU at end of injection (t = 180 s) [2] was 233 RU and the neutralization of Env-pseudotyped virus infectivity (U87.CD4.CCR5 cells), mean IC50 [3] was > 50 µg/mL. The neutralization of Env-pseudotyped virus infectivity (U87.CD4.CCR5 cells), mean IC50 [4] was > 50 µg/mL.

In the case of MAb b12 (antibody), the Mean RU at end of injection (t = 180 s) [1] is reported as 223 RU, the Mean RU at end of injection (t = 180 s) [2] is reported as 195 RU and the neutralization of Env-pseudotyped virus infectivity (U87.CD4.CCR5 cells), mean IC50 [3] is reported as 0.17 µg/mL. It also gave a neutralization of Env-pseudotyped virus infectivity (U87.CD4.CCR5 cells), mean IC50 [4] of 0.15 µg/mL.

Substance T-20 (Enfuvirtide) (peptide) has a neutralization of Env-pseudotyped virus infectivity (U87.CD4.CCR5 cells), mean IC50 [3] of 11.5 nM, an IC50 of neutralization, fold against the mutant [4] of 2 fold and a neutralization of Env-pseudotyped virus infectivity (U87.CD4.CCR5 cells), mean IC50 [4] of 24.2 nM.

For monoclonal antibody (MAb) PA-1, the Mean RU at end of injection (t = 180 s) [1] was 242 RU, the Mean RU at end of injection (t = 180 s) [2] was 123 RU and the neutralization of Env-pseudotyped virus infectivity (U87.CD4.CCR5 cells), mean IC50 [3] was > 50 µg/mL. For the same substance, the neutralization of Env-pseudotyped virus infectivity (U87.CD4.CCR5 cells), mean IC50 [4] was > 50 µg/mL.
